Data from a protein production outcome set (Wang et al. 2014).

Test: label from the status in PepcDB records
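Also: failed if final PepcDB status was selected cloned or expressed and not failed if soluble or beyond.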

## MEKLKSLIPEDLLQTVKSSSVDDLLSTSSSLLRLFLGLPQFHQAVSELANPELGCCGKNEETSLDLKRRGNHCFRSRDFDEALRLYSKALRVAPLDAIDGDKSLLASLFLNRANVLHNLGLLKESLRDCHRALRIDPYYAKAWYRRGKLNTLLGNYKDAFRDITVSMSLESSLVGKKQLQNELKAIPDYQNNQTLEHDEYRPSNDAGVDHLPSVQMEVKLRCVSTKEKGRGMVSECDIEEASVIHVEEPFSVVISKSCRETHCHFCLNELPADTVPCPSCSIPVYCSESCQIQSGGMLSTNEMDKHHIFQKLPDDIVEHIKGVTSADIYYFATDLIQEHQHECRGANWPAVLPSDAVLAGRIIMKLINQGKAATDLSNLQEILELSHTYSKMNPENKLELHLLSIVLIWCLSKSSCPNLSVCEASVTQTIILLSQIKVNSIAVARMKSSGDSFKCLPSGNISTKEPIQSLEQIRVGQALYKTGSLFNHSCKPNIHLYFLSRGLIMQTTEFVPTGCPLELSYGPEVGKWDCKNRIRFLEEEYFFHCRCRGCAQINISDLVINGYGCVNTNCTGVVLDSNVATCESEKLNHFFTAPRNVDQQVQMREKVYADVGEVASSLLSKPSGSLHIEPEICLKCGSRCDIENSHAEVNKAWNHMRRVEELMNSGRANYSVLSDCSRSIAVLRTFLHMYNKDIADAEDKVAQACYLAGELVDARKHCEASIKILKRLYEDEHVVIGNEMVKLASIQLASGDSSGAWDTTKRSSQIFSKYYGSHAETLFSYLPCLKQETAKAVNLSTS
  protein production: failed

## MEKLSAIKKPDINVADAWEQYWNKTLVNSTPVLWDANVERAVVVDLPRFELLFNPELPLIDFACGNGTQTKFLSQFFPRVIGLDVSKSALEIAAKENTAANISYRLLDGLVPEQAAQIHSEIGDANIYMRTGFHHIPVEKRELLGQSLRILLGKQGAMYLIELGTGCIDFFNSLLEKYGQLPYELLLVMEHGIRPGIFTAEDIELYFPDFEILSQGEGLFQSIHKLPDGNYATPPAFWAVIKHR
  protein production: not failed

## MEKLVLGIIGIFFVISGFDYINNNKLGLGDKFKEGMISMGSIAISMVGIYSLSPLIGEGIGFLLTPISNFLGIDSSIFPSMFLAVDMGALGIAESLSSNIHMYWISGVIIASTLGATISFSIPLALGIIEEKYLEDLTTGLLYGIMTLPIAPIVAGLFLGVDIKLLLFNILPLIIFAILLAVFMNKFKDTTVKFFIKLGKLIQLVSILGLLVLGFLSIIGIKPIGSILPIDEALSVVGKIAIFLGGAYPLINFITEKFSKVLSKIGEKINIDEFSIAAFLGTLASNIILFQSFNKMSSKGRIALTAFSVSGAFVIGGQLGFVSLKTPEIINIYIASKLIAGITAMVVALIVHRKTEENLNDESQSEENIPVLES
  protein production: failed

## MEKPIKTQWQLLMDNRNRFFWLLQAGGWIGYALVNYIGSLMHEMRDIYTLIIILGAYAGFLSTIPLRYLYRRIWEFPPALMVLIAIVVSYVTAVAWAIVDNATYWEIYKFGFRPDSPFFYLKNSLAKFYIILSWSGLYFGIKYYQMLQEEKQKALLASSMAHQAQLKMLRYQLNPHFLFNTLNAISTLILLKENEKANLMVNKLSHFLRFSLDNEPIKKVTLEKEVDALLLYLDIEKVRFDEQLEIDIHLSDETKNALVPSLICQPLIENSIKYAISNVEGVGKIRVRSWSEKENLILEVCDNGPKIETDPEKLFRKDGVGLNNTRQRLKSLYGKQYRFEMLKGAESGLCVRITIPMEMLESQR
  protein production: failed

## MEKRFYILTIVVEDREKAYRQVNELLHNFSEDILLRVGYPVREENMAIIFLVLKTDNDTIGALSGKLGQISGVRVKTVPLKR
  protein production: not failed

## MEKYFGNAYRGDPGVPHADADRFVNIWIGSAAFSVLTWVNPYMWQLSNQFKYFSLSLSLELSNSNLGTFGFSCLISELGFLFMCFCSSLNCSGENYVLILLV
  protein production: failed

## MEKYILSIDQGTTSSRAILFNQKGEIAGVAQREFKQYFPQSGWVEHDANEIWTSVLAVMTEVINENDVRADQIAGIGITNQRETTVVWDKHTGRPIYHAIVWQSRQTQSICSELKQQGYEQTFRDKTGLLLDPYFAGTKVKWILDNVEGAREKAENGDLLFGTIDTWLVWKLSGKAAHITDYSNASRTLMFNIHDLEWDDELLELLTVPKNMLPEVKASSEVYGKTIDYHFYGQEVPIAGVAGDQQAALFGQACFERGDVKNTYGTGGFMLMNTGDKAVKSESGLLTTIAYGIDGKVNYALEGSIFVSGSAIQWLRDGLRMINSAPQSESYATRVDSTEGVYVVPAFVGLGTPYWDSEARGAIFGLTRGTEKEHFIRATLESLCYQTRDVMEAMSKDSGIDVQSLRVDGGAVKNNFIMQFQADIVNTSVERPEIQETTALGAAFLAGLAVGFWESKDDIAKNWKLEEKFDPKMDEGEREKLYRGWKKAVEATQVFKTE
  protein production: failed

## MELAVGNLSEGNASCPEPPAPEPGPLFGIGVENFVTLVVFGLIFALGVLGNSLVITVLARSKPGKPRSTTNLFILNLSIADLAYLLFCIPFQATVYALPTWVLGAFICKFIHYFFTVSMLVSIFTLAAMSVDRYVAIVHSRRSSSLRVSRNALLGVGCIWALSIAMASPVAYHQGLFHPRASNQTFCWEQWPDPRHKKAYVVCTFVFGYLLPLLLICFCYAKVLNHLHKKLKNMSKKSEASKKKTAQTVLVVVVVFGISWLPHHIIHLWAEFGVFPLTPASFLFRITAHCLAYSNSSVNPIIYAFLSENFRKAYKQVFKCHIRKDSHLSDTKENKSRIDTPPSTNCTHV
  protein production: failed

## MELDMGKVITAKRKEKSWTQEQLAQAVGVSTPAVSKWETGATYPDITLLPPIARALNTTVDELFSYQNELSDNDVSGFTQKATSLYEAEGFDAGWNYCQKLLQEFPNSIPLKFYLGNLFQSFMIMKTDLGKEDIQSCYRQAAILYEEVLLSGYPKFTYHATLILVGFYTMLNELDRAEELLDSLPKLKTDPDFLYPSIYALRGKNEEAMKLTQENIRRYISRVSHGLSLLGAFAREQEDMDKACTLAKMNLEITKLLGISREIAYADMIKIMVARGDKEAALTYLEEYTQHILELSYDYAKSPVFNRVTEKFQDPSYVKKVLAQSILIDKEYTPLKEEPRYLQIVHRLRQVIDTQTHTFRE
  protein production: failed

## MELENIVANTVLLKAREGGGGNRKGKSKKWRQMLQFPHISQCEELRLSLERDYHSLCERQPIGRLLFREFCATRPELSRCVAFLDGVAEYEVTPDDKRKACGRQLTQNFLSHTGPDLIPEVPRQLVTNCTQRLEQGPCKDLFQELTRLTHEYLSVAPFADYLDSIYFNRFLQWKWLERQPVTKNTFRQYRVLGKGGFGEVCACQVRATGKMYACKKLEKKRIKKRKGEAMALNEKQILEKVNSRFVVSLAYAYETKDALCLVLTLMNGGDLKFHIYHMGQAGFPEARAVFYAAEICCGLEDLHRERIVYRDLKPENILLDDHGHIRISDLGLAVHVPEGQTIKGRVGTVGYMAPEVVKNERYTFSPDWWALGCLLYEMIAGQSPFQQRKKKIKREEVERLVKEVPEEYSERFSPQARSLCSQLLCKDPAERLGCRGGSAREVKEHPLFKKLNFKRLGAGMLEPPFKPDPQAIYCKDVLDIEQFSTVKGVELEPTDQDFYQKFATGSVPIPWQNEMVETECFQELNVFGLDGSVPPDLDWKGQPPAPPKKGLLQRLFSRQDCCGNCSDSEEELPTRL
  protein production: failed

## MELKILVTGGNVFVPGRLNAHFSTVVYLEHKDRRIIIDPGNLSSMDELEEKFSELGISPDDITDVLFTHVHLDHIFNSVLFENATFYVHEVYKTKNYLSFGTIVGRIYSKVISSWKNVVLLKGEESLFDEKVKVFHTPWHAREHLSFLLDTENAGRVLITGDITPNRLSYYDIIKGYGSVQVKNFLDRVGRIDLLVFPHDAPLKPEVKK
  protein production: not failed

## MELLFIIAAFVMGFIALKINLPPLVGFLLAGFGLHALGFQSNDALETFADLGVTLLLFSIGLKLDIKTLLAKEIWLGATLHNVFSTLFFTFALLGLKLLGINMLANIETAQLVLFGFALSFSSTVFAVKALQEKGEMNATYGTLAIGILVMQDIFAVVFLTASTGKIPEITALALFALPLFRPLFFKLLDWAGHGEMLVLYGIFLALVAGAGTFELVGMKPDLGALILGMLLAGHAKASELSKSLFNLKEVLLICFFLNIGLSAAPTISGLGLALILILLLPVKGFLYFIIINKFKFRVRTSLLASLTLFNYSEFGLIVGGLAFKMGWLPADTLVAIAIAVSISFIISAPLNNFGHTIYQRSRHWLKEHTAERLNPMDKLINPGRAQILILGMGRIGSGAYDELKEKYGDIILGIELREESAKQHQELGRNVISGDATDPDFWERILSTSHVKLVLLAMPNHQGNQFALEQLQTRNYQGQTAAIAAYNDQIDGLIEQGVDAAFNIYHEAGSGFARHVSEQLDPQFNHHKDYITH
  protein production: failed

## MELNNTIATPLYKQLEKKLQQEIDSGKRPAGSRLPTENELSKAYNVSRVTVRKALAELSESGYLERKSGKGTFVAEKKLERGITNGVLGFSEMCKMMNAIPGAKIIKIALEEPSEKDIQKMSLNKDEKVLVLERVRYANGKPVLLELNKFPESFSFLFEENLTDASLYDILEQHNIILDHSRKTLDIVFADTKEAKTLGISRGYPLLRINSIIHNADNTITNLCQQLCIGDKFTFII
  protein production: failed

## MELSAIGEQVFAVESIRKKRVRKGKVEYLVKWKGWPPKYSTWEPEEHILDPRLVMAYEEKEERDRASGYRKRGPKPKRLLLQRLYSMDLRSSHKAKGKEKLCFSLTCPLGSGSPEGVVKAGAPELVDKGPLVPTLPFPLRKPRKAHKYLRLSRKKFPPRGPNLESHSHRRELFLQEPPAPDVLQAAGEWEPAAQPPEEEADADLAEGPPPWTPALPSSEVTVTDITANSITVTFREAQAAEGFFRDRSGKF
  protein production: failed

## MELVDRYIAAVQRELPEDKRQEIGRELKANICDQLDALAEHAELTESQIADVLQQMGHPAQVAQQFVPPTPIVASEDISLFKHTLVMVLGVLFVLQVVSGATQWLGSTEGSLFGFIRHIASGFIVDACFAFTAILLSFWSISAQGKVMFGGRCQHWQPQNLPNVGPDWQHISLSDVFSDLATYLFLLLLIWNNLWMSADQLAARSVIFSANAQQLLQWFSPVILLSLLNTLWQLLRRLWTAPLLLANAGVNLAYALCLVFLAFSSPLLQYQGGEVEGIFTLQQLDTWLGHALLVTALFPGYECIRDMLRWRKLTAH
  protein production: failed

## MELVVGRVVKSHGVTGEVVVEIRTDDPADRFAPGTRLRAKGPFDGGAEGSAVSYVIESVRQHGGRLLVRLAGVADRDAADALRGSLFVIDADDLPPIDEPDTYYDHQLVGLMVQTATGEGVGVVTEVVHTAAGELLAVKRDSDEVLVPFVRAIVTSVSLDDGIVEIDPPHGLLNLE
  protein production: failed

## MEMKTKKAVLMSSLALSIIAFLLALILMQPNSAGYPEVPAVPTYVLFGLSAASFAVFIYEYFTATRT
  protein production: failed

## MEMRKIGLIGGMSFESSAVYYRLVNEAVRRRRGKLHSAEVLLHSVDFQRIVDLQRAGHWDDAALLLSDVARGLVAGGADCILICSNTMHLIADAVHASVDVPLINIIDETALRLKAAGSRKPLLLATRYTMEQGFYAERMKTHDIDLMVPDADGRTLTHNVIFDELCAGQVLNASRSAVIGLIEKAKAEGADAVILGCTEICLLLDPADLPLPGFDSTAIHAEAAVEFSLRDRQ
  protein production: failed

## MEMTNAQRLILSNQYKMMTMLDPANAERYRRLQTIIERGYGLQMRELDREFGELKEETCRTIIDIMEMYHALHVSWSNLQDQQSIDERRVTFLGFDAATEARYLGYVRFMVNVEGRYTHFDAGTHGFNAQTPMWEKYQRMLNVWHACPRQYHLSANEINQIINA
  protein production: not failed

## MENEGASTVCPLDPGSPLFLSGDGFEPVGVLFPHAVFHFPSKEKKEAYDFMDKVVDKHRRLCDERQRLGLKNESEVDVKNEGSTSNPEPAVKEPVPEPLP
  protein production: not failed

## MENFFNQFFESIGEDKNREGLKETPKRVQELWKFLYKGYKEDPRVALKSAYFQGVCDEMIVAQNIEFYSTCEHHLLPFLGNISVGYIPKEKIVGISAIAKLIEIYSRRLQIQERLTIQIAETFDEIIEPRGVIVVCEAKHLCMSMQGVQKQNAIIKTSVLRGLFKKDSKTRAEFMQLLKS
  protein production: failed
